Laboratory results published in the Immune Epitope Database (IEDB).

Assays:
HLA-B*15:17 = experiment: IEDB peptide-MHC binding, purified MHC/direct/fluorescence; filed as Kd, often an IC50 or EC50 that approximates it; ≥ and ≤ were set here for values at or beyond the usual limits of such assays; conditions: source organism: dengue virus type 4
HLA-B*57:01 = experiment: as above; conditions: source organism: dengue virus type 4
HLA-A*32:07 = experiment: IEDB peptide-MHC binding, purified MHC/competitive/fluorescence; filed as Kd, often an IC50 or EC50 that approximates it; ≥ and ≤ were set here for values at or beyond the usual limits of such assays; conditions: source organism: dengue virus type 4
HLA-A*32:15 = experiment: as above; conditions: source organism: dengue virus type 4
HLA-A*68:23 = experiment: as above; conditions: source organism: dengue virus type 4
HLA-B*15:42 = experiment: as above; conditions: source organism: dengue virus type 4
HLA-B*45:06 = experiment: as above; conditions: source organism: dengue virus type 4
HLA-B*83:01 = experiment: as above; conditions: source organism: dengue virus type 4
HLA-C*14:02 = experiment: as above; conditions: source organism: dengue virus type 4
HLA-A*32:01 = experiment: IEDB peptide-MHC binding, purified MHC/competitive/radioactivity; filed as Kd, often an IC50 or EC50 that approximates it; ≥ and ≤ were set here for values at or beyond the usual limits of such assays; conditions: source organism: Dengue virus 4 Philippines/H241/1956
HLA-A*01:01 = experiment: IEDB peptide-MHC binding, purified MHC/direct/fluorescence; filed as Kd, often an IC50 or EC50 that approximates it; ≥ and ≤ were set here for values at or beyond the usual limits of such assays
HLA-A*02:01 = experiment: as above
HLA-A*03:01 = experiment: as above
HLA-A*11:01 = experiment: as above
HLA-A*26:01 = experiment: as above
HLA-A*30:01 = experiment: as above; conditions: source organism: Giardia lamblia ATCC 50803
HLA-A*31:01 = experiment: as above
HLA-A*69:01 = experiment: as above; conditions: source organism: Giardia lamblia ATCC 50803
HLA-B*07:02 = experiment: as above
HLA-B*08:01 = experiment: as above
HLA-B*15:01 = experiment: as above
HLA-B*27:05 = experiment: as above
HLA-B*35:01 = experiment: as above; conditions: source organism: Giardia lamblia ATCC 50803
HLA-B*40:01 = experiment: as above
HLA-B*44:02 = experiment: as above
HLA-B*58:01 = experiment: as above
HLA-A*24:02 = experiment: as above; conditions: source organism: Influenza A virus (A/duck/Mongolia/47/2001(H7N1))
HLA-B*18:01 = experiment: as above; conditions: source organism: Influenza A virus (A/duck/Mongolia/47/2001(H7N1))
HLA-B*39:01 = experiment: as above; conditions: source organism: Influenza A virus (A/duck/Mongolia/47/2001(H7N1))
HLA-B*46:01 = experiment: as above; conditions: source organism: Influenza A virus (A/duck/Mongolia/47/2001(H7N1))
HLA-A*24:03 = experiment: as above; conditions: source organism: Camelpox virus M-96
HLA-A*02:50 = experiment: IEDB peptide-MHC binding, purified MHC/competitive/fluorescence; filed as Kd, often an IC50 or EC50 that approximates it; ≥ and ≤ were set here for values at or beyond the usual limits of such assays
[1] = source organism: Giardia lamblia ATCC 50803
[2] = source organism: Influenza A virus (A/duck/Mongolia/47/2001(H7N1))
[3] = source organism: Camelpox virus M-96

Q: STMPLVMAW was tested. Which Kd (HLA-B*15:17) did it give?
A: ≤ 0.001 µM

Q: And the Kd (HLA-B*57:01)?
A: 0.0052 µM

Q: What about the Kd (HLA-A*32:07) of the same sequence?
A: ≤ 0.001 µM

Q: What about the Kd (HLA-A*32:15) of the same sequence?
A: 0.0227 µM

Q: And the Kd (HLA-A*68:23)?
A: 0.0006 µM

Q: What about the Kd (HLA-B*15:42) of the same sequence?
A: ≥ 5 µM

Q: And the Kd (HLA-B*45:06)?
A: ≥ 5 µM

Q: And the Kd (HLA-B*83:01)?
A: 1.14 µM

Q: And the Kd (HLA-C*14:02)?
A: 0.0106 µM

Q: And the Kd (HLA-A*32:01)?
A: 0.00169 µM

Q: Which Kd (HLA-A*01:01; [1]) does the source give for SVKERGPAY here?
A: ≥ 20 µM

Q: And the Kd (HLA-A*02:01; [1])?
A: ≥ 20 µM

Q: And the Kd (HLA-A*03:01; [1])?
A: 0.61 µM

Q: And the Kd (HLA-A*11:01; [1])?
A: 0.105 µM

Q: And the Kd (HLA-A*26:01; [1])?
A: 0.0246 µM

Q: What about the Kd (HLA-A*30:01) of the same sequence?
A: 0.0354 µM

Q: What about the Kd (HLA-A*31:01; [1]) of the same sequence?
A: ≥ 20 µM

Q: What about the Kd (HLA-A*69:01) of the same sequence?
A: ≥ 20 µM

Q: What about the Kd (HLA-B*07:02; [1]) of the same sequence?
A: ≥ 20 µM

Q: And the Kd (HLA-B*08:01; [1])?
A: ≥ 20 µM

Q: And the Kd (HLA-B*15:01; [1])?
A: 0.179 µM

Q: What about the Kd (HLA-B*27:05; [1]) of the same sequence?
A: ≥ 20 µM

Q: What about the Kd (HLA-B*35:01) of the same sequence?
A: 0.0394 µM

Q: What about the Kd (HLA-B*40:01; [1]) of the same sequence?
A: ≥ 20 µM

Q: What about the Kd (HLA-B*44:02; [1]) of the same sequence?
A: ≥ 20 µM

Q: What about the Kd (HLA-B*58:01; [1]) of the same sequence?
A: ≥ 20 µM

Q: What does the source list for THFQRKRRV?
A: Kd (HLA-A*01:01; [2]): ≥ 20 µM; Kd (HLA-A*02:01; [2]): ≥ 20 µM; Kd (HLA-A*03:01; [2]): ≥ 20 µM; Kd (HLA-A*11:01; [2]): ≥ 20 µM; Kd (HLA-A*24:02): ≥ 20 µM; Kd (HLA-A*26:01; source organism: Influenza A virus(A/swine/Henan/3/2004(H9N2))): ≥ 20 µM; Kd (HLA-A*31:01; [2]): ≥ 20 µM; Kd (HLA-B*07:02; [2]): ≥ 20 µM; Kd (HLA-B*08:01; [2]): ≥ 20 µM; Kd (HLA-B*15:01; [2]): ≥ 20 µM; Kd (HLA-B*18:01): ≥ 20 µM; Kd (HLA-B*27:05; [2]): ≥ 20 µM; Kd (HLA-B*39:01): ≥ 20 µM; Kd (HLA-B*40:01; [2]): ≥ 20 µM; Kd (HLA-B*44:02; [2]): ≥ 20 µM; Kd (HLA-B*46:01): ≥ 20 µM; Kd (HLA-B*58:01; [2]): ≥ 20 µM

Q: For VMCIQMKYV, which Kd (HLA-A*01:01; [3]) is on record?
A: ≥ 20 µM

Q: What about the Kd (HLA-A*02:01; [3]) of the same sequence?
A: ≥ 20 µM

Q: What about the Kd (HLA-A*03:01; [3]) of the same sequence?
A: ≥ 20 µM

Q: What about the Kd (HLA-A*11:01; [3]) of the same sequence?
A: ≥ 20 µM

Q: And the Kd (HLA-A*24:03)?
A: ≥ 20 µM

Q: And the Kd (HLA-A*26:01; [3])?
A: ≥ 20 µM

Q: And the Kd (HLA-A*31:01; [3])?
A: ≥ 20 µM

Q: And the Kd (HLA-B*07:02; [3])?
A: ≥ 20 µM

Q: And the Kd (HLA-B*08:01; [3])?
A: ≥ 20 µM

Q: What about the Kd (HLA-B*15:01; [3]) of the same sequence?
A: ≥ 20 µM

Q: And the Kd (HLA-B*27:05; [3])?
A: ≥ 20 µM

Q: And the Kd (HLA-B*40:01; [3])?
A: ≥ 20 µM

Q: What about the Kd (HLA-B*44:02; [3]) of the same sequence?
A: ≥ 20 µM

Q: And the Kd (HLA-B*58:01; [3])?
A: ≥ 20 µM

Q: What about the Kd (HLA-A*02:50; source organism: Variola virus) of the same sequence?
A: 0.0181 µM

Q: Which results are given for WMDMWESPM?
A: Kd (HLA-A*02:01; source organism: Escherichia coli O157:H7): 1.01 µM; Kd (HLA-A*02:50; source organism: Escherichia coli O157:H7 str. Sakai): 0.0004 µM
